Legend:
[1] = biological target: 53BP1 GAR(3K)-Tudor (Homo sapiens, UniProt Q12888 1288-1659, R1396K;R1398K;R1401K); assay: SPR
[2] = biological target: 53BP1 GAR-Tudor (Homo sapiens, UniProt Q12888 1288-1659); assay: SPR
Chain of 53BP1 GAR-Tudor (Q12888 1288-1659): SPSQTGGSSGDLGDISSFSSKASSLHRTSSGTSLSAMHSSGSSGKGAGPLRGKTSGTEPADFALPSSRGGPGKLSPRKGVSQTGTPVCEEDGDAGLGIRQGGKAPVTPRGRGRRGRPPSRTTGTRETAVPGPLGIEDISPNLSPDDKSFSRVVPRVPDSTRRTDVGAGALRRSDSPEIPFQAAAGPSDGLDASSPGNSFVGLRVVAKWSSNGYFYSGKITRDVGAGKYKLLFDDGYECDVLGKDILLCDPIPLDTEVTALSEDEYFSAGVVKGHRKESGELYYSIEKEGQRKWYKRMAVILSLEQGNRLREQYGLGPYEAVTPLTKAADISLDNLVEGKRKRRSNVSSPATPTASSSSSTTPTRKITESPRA

Chain of 53BP1 GAR(3K)-Tudor (Q12888 1288-1659 R1396K/R1398K/R1401K): as the sequence (Q12888 1288-1659) above, with R109K, R111K, R114K counted along it

## GCUGCGGUGUGGAAGGAGUGGUCGGGUUGCGCAGCG (structured_RNA) [SC1 RNA, biotinylated]
[1]
  binding result: no binding
[2]
  Kd: ~8 nM
